Data from publication PMC5372246, “Co-production of hydrogen and ethanol from glucose in Escherichia coli by activation of pentose-phosphate pathway through deletion of phosphoglucose isomerase (pgi) and overexpression of glucose-6-phosphate dehydrogenase (zwf) and 6-phosphogluconate dehydrogenase (gnd)” (Biotechnology for Biofuels, 2017).

System: T1, NC(=O)c1ccc[n+]([C@@H]2O[C@H](COP(=O)(O)OP(=O)(O)OC[C@H]3O[C@@H](n4cnc5c(N)ncnc54)[C@H](OP(=O)(O)O)[C@@H]3O)[C@@H](O)[C@H]2O)c1
T1 construct: full-length, C-terminal His-tag, Ni-NTA purified from E. coli, 55 kDa on SDS-PAGE
Assay: purified protein
Format: biochemical, Escherichia coli
Conditions: co-substrate glucose-6-phosphate, general assay: Tris-HCl pH 7.5, 1 mM MgCl2, 30 °C

Zwf (ZE), glucose-6-phosphate dehydrogenase (Escherichia coli K-12)
Km: 15 µM
